T1: membrane-type human IL-6R expressed on cells (human, UniProt P08887 20-468)
T1 construct: These are Ba/F3 cells (BaF/hIL-6R, WO2012/073992) or CHO cells expressing human IL-6 receptor; also called hIL-6R expressed on cell membrane; cell-membrane hIL-6R
T1 sequence: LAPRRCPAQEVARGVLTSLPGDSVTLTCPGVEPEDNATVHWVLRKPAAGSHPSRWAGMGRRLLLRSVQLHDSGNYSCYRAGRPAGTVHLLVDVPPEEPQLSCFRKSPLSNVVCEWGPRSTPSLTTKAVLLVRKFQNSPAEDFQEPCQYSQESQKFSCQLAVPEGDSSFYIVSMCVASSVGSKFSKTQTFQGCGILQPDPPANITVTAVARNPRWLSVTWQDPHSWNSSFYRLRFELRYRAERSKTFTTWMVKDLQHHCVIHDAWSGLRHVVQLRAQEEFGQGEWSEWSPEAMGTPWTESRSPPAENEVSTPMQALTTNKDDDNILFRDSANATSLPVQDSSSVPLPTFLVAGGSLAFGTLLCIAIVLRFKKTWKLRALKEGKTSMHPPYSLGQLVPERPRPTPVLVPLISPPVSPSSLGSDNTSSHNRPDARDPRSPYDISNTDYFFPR

T2: human IL-6 receptor (soluble hIL-6R) (human, UniProt P08887 20-357, limits assumed, biotin-labeled in the ELISA experiments (sites not given))
T2 construct: also called biotin-labeled hIL-6R
T2 sequence: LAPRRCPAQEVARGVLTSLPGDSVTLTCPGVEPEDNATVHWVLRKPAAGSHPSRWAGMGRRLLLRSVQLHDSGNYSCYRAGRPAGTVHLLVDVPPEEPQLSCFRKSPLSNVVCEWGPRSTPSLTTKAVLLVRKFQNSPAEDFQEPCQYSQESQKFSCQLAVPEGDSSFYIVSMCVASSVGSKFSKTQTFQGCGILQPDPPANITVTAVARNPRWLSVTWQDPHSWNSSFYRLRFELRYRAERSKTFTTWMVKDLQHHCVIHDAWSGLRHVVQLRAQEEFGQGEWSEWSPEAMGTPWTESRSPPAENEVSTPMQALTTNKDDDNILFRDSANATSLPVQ

B1: MRA (antibody, human IgG1, kappa, V domains shown)
VH: QVQLQESGPGLVRPSQTLSLTCTVSGYSITSDHAWSWVRQPPGRGLEWIGYISYSGITTYNPSLKSRVTMLRDTSKNQFSLRLSSVTAADTAVYYCARSLARTTAMDYWGQGSLVTVSS
VL: DIQMTQSPSSLSASVGDRVTITCRASQDISSYLNWYQQKPGKAPKLLIYYTSRLHSGVPSRFSGSGSGTDFTFTISSLQPEDIATYYCQQGNTLPYTFGQGTKVEIKR
notes: also called known anti-human IL-6R antibody MRA; control antibody MRA
B2: 6RAD2C1-4_001 (antibody, human IgG1, kappa, V domains shown)
VH: EVQLVESGGDLVKPGGGLRLSCAASGFTFSGHTMNWVRQAPGKGLEWVSSISSRSNYIYYADSVKGRFTISRDNAKNSLYLQMNSLRAEDTAVYYCARYGRLHDRNWVFDYWGQGTLVTVSS
VL: QSALTQPPSASGSPGQTVTISCTGTSTDVGDYNYVSWYQQHPGKAPKLMIYQVSKKPSGVPDRFSGSKSGNTASLTVSGLQAEDEADYFCSSRSYGAGVVFGGGTKLTVLR
notes: also called 6RAD2C1-4_01
B3: 6RAD2C1-4_076 (antibody, human IgG1, kappa, V domains shown)
VH: EVQLVESGGDLVKPGGGLRLSCAASGFTFSGYTMNWVRQAPGKGLEWVSSISSRSSYIDYADSVKGRFTISRDNAKNSLYLQMNSLRAEDTAVYYCARYGALGQRNWVFDYWGQGTLVTVSS
VL: QSALTQPPSASGSPGQTVTISCTGTSTDVGDYNYVSWYQQHPGKAPKLMIYQTSKRPSGVPDRFSGSKSGNTASLTVSGLQAEDEADYFCSSRSIKHPVFGGGTKLTVLR
notes: also called 6RAD2C1-4_76
B4: 6RDL3C1-4_085 (antibody, human IgG1, kappa, V domains shown)
VH: EVQLVESGGDLVKPGGGLRLSCAASGFTFSGHTMNWVRQAPGKGLEWVSSISSRSNYIYYADSVKGRFTISRDNAKNSLYLQMNSLRAEDTAVYYCARYGRLHDRNWVFDYWGQGTLVTVSS
VL: QSALTQPPSASGSPGQTVTISCTGTSTDVGDYNYVSWYQQHPGKAPKLMIYQVSKKPSGVPDRFSGSKSGNTASLTVSGLQAEDEADYFCSSRSYGAGVVFGGGTKLTVLR
notes: also called 6RDL3C1-4_85
B5: 6RAD2C1-4_030 (antibody, human IgG1, kappa, V domains shown)
VH: EVQLVESGGDLVKPGGGLRLSCAASGFTFSSYTMNWVRQAPGKGLEWVSSISSRSGYAYYADSVKGRFTISRDNAKNSLYLQMNSLRAEDTAVYYCARFGALNTLNWVFDYWGQGTLVTVSS
VL: QSALTQPPSASGSPGQTVTISCTGTSTDVGDYNYVSWYQQHPGKAPKLMIYQVSKKPSGVPDRFSGSKSGNTASLTVSGLQAEDEADYFCSTRTANAGVLFGGGTKLTVLR
notes: also called 6RAD2C1-4_30
B6: 6RAD2C1-4_011 (antibody, human IgG1, kappa, V domains shown)
VH: EVQLVESGGDLVKPGGGLRLSCAASGFTFSGHTMNWVRQAPGKGLEWVSSISSRSSYIYYADSVKGRFTISRDNAKNSLYLQMNSLRAEDTAVYYCARYGALGQMNWVFDYWGQGTLVTVSS
VL: QSALTQPPSASGSPGQTVTISCTGTSTDVGDYNYVSWYQQHPGKAPKLMIYSVSKRPSGVPDRFSGSKSGNTASLTVSGLQAEDEADYFCSSRSSSMNVLFGGGTKLTVLR
notes: also called 6RAD2C1-4_11
B7: 6RAD2C1-4_026 (antibody, human IgG1, kappa, V domains shown)
VH: EVQLVESGGDLVKPGGGLRLSCAASGFTFSGYTMNWVRQAPGKGLEWVSSISSRSNYAHYADSVKGRFTISRDNAKNSLYLQMNSLRAEDTAVYYCARYGRLGDRNWVFDYWGQGTLVTVSS
VL: QSALTQPPSASGSPGQTVTISCTGTSTDVGAYNYVSWYQQHPGKAPKLMIYKVSKKPSGVPDRFSGSKSGNTASLTVSGLQAEDEADYFCSLRAATTGVLFGGGTKLTVLR
notes: also called 6RAD2C1-4_26
B8: 6RAD2C1-4_005 (antibody, human IgG1, kappa, V domains shown)
VH: EVQLVESGGDLVKPGGGLRLSCAASGFTFSTHTMNWVRQAPGKGLEWVSSISSRSSYIHYADSVKGRFTISRDNAKNSLYLQMNSLRAEDTAVYYCARFGKLGERNWVFDYWGQGTLVTVSS
VL: QSALTQPPSASGSPGQTVTISCTGTSTDVGDYNYVSWYQQHPGKAPKLMIYQVSKKPSGVPDRFSGSKSGNTASLTVSGLQAEDEADYFCSVRSDGHGPMFGGGTKLTVLR
notes: also called 6RAD2C1-4_05
B9: I6NMSC1-3_A11 (antibody, human IgG1, lambda, V domains shown)
VH: QVQLQESGGGVVQPGRSLRLSCAASGFTFSSYAMHWVRQAPGKGLEWVAVISYDGSNKYYADSVKGRFTISRDNSKNTLYLQMNSLRAEDTAVYYCARDAVTGDDWYFDLWGRGTLVTVSS
VL: SYELTQPPSVSVAPGKTARITCGGNNIGSKSVHWYQQKPGQAPVLVVYDDSDRPSGIPERFSGSNSGNTATLTISRVEAGDEADYYCQVWDSSSDHPVFGGGTKLTVLG
B10: GC413 (antibody, human IgG1, kappa, L234A L235A, N297A, V domains shown)
VH: QVQLVQSGAEVKKPGASVKVSCKASGYTFTDYEMHWIRQPPGQGLEWIGAIDPKTGDTAYSQKFKGRVTLTADKSTSTAYMELSSLTSEDTAVYYCTRFYSYTYWGQGTLVTVSS
VL: DIVMTQSPLSLPVTPGEPASISCRSSQSLVHSNRNTYLHWYQQKPGQAPRLLIYKVSNRFSGVPDRFSGSGSGTDFTLKISRVEAEDVGVYYCSQNTHVPPTFGQGTKLEIKR
notes: also called anti-human glypican 3 antibody GC413; anti-human glypican-3 antibody GC413
B11: 6RNMSC1-2_F02 (antibody, human IgG1, kappa)
heavy: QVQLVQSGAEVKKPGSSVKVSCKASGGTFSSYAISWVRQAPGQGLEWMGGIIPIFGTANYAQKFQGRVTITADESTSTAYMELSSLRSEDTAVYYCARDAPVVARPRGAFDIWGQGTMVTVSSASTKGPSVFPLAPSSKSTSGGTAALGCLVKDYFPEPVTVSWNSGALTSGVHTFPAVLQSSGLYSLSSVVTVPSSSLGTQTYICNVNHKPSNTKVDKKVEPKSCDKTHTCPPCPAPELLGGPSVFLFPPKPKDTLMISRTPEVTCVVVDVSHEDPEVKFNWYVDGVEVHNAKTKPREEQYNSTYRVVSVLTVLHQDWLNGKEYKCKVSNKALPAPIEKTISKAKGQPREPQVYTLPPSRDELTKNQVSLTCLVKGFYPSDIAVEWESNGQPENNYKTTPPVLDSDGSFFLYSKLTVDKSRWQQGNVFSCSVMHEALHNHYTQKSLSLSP
light: DIVMTQTPLSSPVTLGQPASISCRSSQSLVHSDGNTYLSWLQQRPGQPPRLLIHEISNRFSGVPDRFSGSGAGTNFTLKISRVEAEDVGVYYCMQATQFPRTFGQGTKVEIKRTVAAPSVFIFPPSDEQLKSGTASVVCLLNNFYPREAKVQWKVDNALQSGNSQESVTEQDSKDSTYSLSSTLTLSKADYEKHKVYACEVTHQGLSSPVTKSFNRGEC
notes: also called clone 6RNMSC1-2_F02

Experiments:
[1] = target: T1, membrane-type human IL-6R expressed on …; assay: flow cytometry, BaF/hIL-6R cells, secondary antibody against the constant region, with or without 100 µM kynurenine
Procedure: An appropriate number of BaF/hIL-6R cells were prepared and blocked with PBS containing 2% FBS on ice for one hour or more. […] In this step, the antibodies were contacted with cell-membrane hIL-6R on ice for 30 minutes. […] Then, in the presence or absence of kynurenine, the complex was contacted with a secondary antibody (Beckman Coulter IM1627) that recognizes the antibody constant region. After 30 minutes of incubation with the antibody on ice, the cells were again washed with Wash Buffer and then re-suspended in PBS/2% FBS.

[2] = target: T2, human IL-6 receptor (soluble hIL-6R); assay: SPR Biacore T200, IL-6R immobilised on CM5, antibody analyte in a concentration series, 1 mM ATP, 25 C; KD from plot of equilibrium value against antibody concentration; SPR, IL-6R on the chip, antibody concentration series, 1 mM ATP, 25 C
Procedure: The running buffer was used: 20 mmol/1 ACES, 150 mmol/l NaCl, 0.05% (w/v) Tween20, pH 7.4. Assay was carried out at 25° C. […] For dilution of the antibodies, the running buffer or the running buffer containing any one of ATP, ADP, AMP, cAMP, and adenosine (ADO) were used. The final concentration of each small molecule and the final concentration of each antibody were adjusted to 1 mM and 1 μM, respectively. Meanwhile, under the 1 mM ATP condition, assay was carried out with a series of stepwise antibody concentrations. The dissociation constant KD (mol/L) of each clone for IL-6R was calculated from a plot of equilibrium value against antibody concentration. The parameters were calculated using the Biacore T200 Evaluation Software (GE Healthcare).

human IL-6 [3] = target: T3, human IL-6 (human, biotin-labeled in the ELISA experiments (sites not given)); assay: SPR (Biacore T200), A11 immobilised on CM5, 1 µmol/L IL-6 as analyte for 60 s, 25 °C, kynurenine concentration varied (axis in µmol/L)
T3 construct: ELISA used biotin-labeled human IL-6; SPR used human IL-6 from Kamakura Techno-Science, Inc; also called biotin-labeled human IL-6
Procedure: The running buffer used was 10 mmol/1 ACES, 150 mmol/l NaCl, 0.05% (w/v) Tween20, pH 7.4. […] All was immobilized onto sensor chip CM5 by amine coupling, and as an analyte IL-6 was diluted to 1 μmol/l with 10 mmol/1 ACES, 150 mmol/l NaCl, 0.05% (w/v) Tween20, pH 7.4 containing kynurenine at various concentrations, and allowed to interact for 60 seconds to observe changes in the amount of binding.

human IL-6 [4] = target: T3, human IL-6; assay: SPR Biacore T200, A11 captured on protein A/G CM5 chip, human IL-6 analyte, 37 C, running buffer with 100 µmol/l kynurenine; SPR kinetics, A11 captured on the chip, IL-6 analyte, 100 µmol/l kynurenine
Procedure: Sensor chip CM5 (GE Healthcare) was immobilized with an appropriate amount of protein A/G (Invitrogen) by amine coupling. Antibodies of interest were captured by the chip to allow interaction to IL-6 as an antigen. The two types of running buffers used were 10 mmol/1 ACES, 150 mmol/l NaCl, 0.05% (w/v) Tween20, 100 μmol/l kynurenine, pH 7.4, and 10 mmol/1 ACES, 150 mmol/l NaCl, 0.05% (w/v) Tween20, pH 7.4. The interaction with IL-6 as an antigen was assessed at 37° C. The buffer used to dilute IL-6 was the same running buffer as described above.
Then, the running buffer was injected at a flow rate of 5 μl/min for three minutes. After observation of human IL-6 dissociation from the antibody, 10 mmol/l glycine-HCl (pH 1.5) was injected at a flow rate of 30 μl/min for 30 seconds to regenerate the sensor chip. […] Each parameter was calculated using the Biacore T200 Evaluation Software (GE Healthcare).

[5] = target: T2, human IL-6 receptor (soluble hIL-6R); assay: ELISA, biotin-labeled hIL-6R on streptavidin plate, absorbance 450 nm; seven conditions of Table 18
human serum albumin = target: T4, human serum albumin (human, UniProt P02768 25-609, biotin-labeled (sites not given)); assay: ELISA, biotin-labeled HSA on streptavidin plate, absorbance 450 nm; nine small-molecule conditions of Table 3
T4 construct: also called HSA; biotin-labeled HSA

[6] = target: T2, human IL-6 receptor (soluble hIL-6R); assay: SPR Biacore T200, antibody captured on protein A CM5 chip, IL-6R analyte, 25 C, with 100 µmol/l kynurenine; SPR, antibody captured on the chip, IL-6R as analyte, 100 µmol/l kynurenine
Procedure: Each parameter was calculated using the Biacore T200 Evaluation Software (GE Healthcare).

Row | Binder | Kd [2] [nM] | other results
1 | B1 | – | binding result [1]: binds
2 | B2 | 300 | –
3 | B3 | 250 | –
4 | B4 | 390 | –
5 | B5 | 330 | –
6 | B6 | 230 | –
7 | B7 | 210 | –
8 | B8 | 340 | –
9 | B9 | – | KD printed beside the curve of IL-6 binding against the kynurenine concentration (per paragraph 715 the KD of kynurenine for forming the A11/IL-6/kynurenine complex, not the antibody-antigen KD) (human IL-6 [3]): 32 nM; Kd (human IL-6 [4]): 1000 nM
10 | B10 | – | binding result [5]: no binding (tested: 2.5 µg/ml); binding result (human serum albumin): no binding (tested: 2.5 µg/ml)
11 | B11 | – | Kd [6]: 1500 nM
